Values quoted from earlier work, collected in patent US20250304696A1, “METHODS AND COMPOSITIONS FOR TREATING BARTH SYNDROME” (PROVENTION BIO, INC., priority 2021, published 2025).

B1: inebilizumab (antibody, chains of the INN, looked up, V domains shown)
VH: EVQLVESGGGLVQPGGSLRLSCAASGFTFSSSWMNWVRQAPGKGLEWVGRIYPGDGDTNYNVKFKGRFTISRDDSKNSLYLQMNSLKTEDTAVYYCARSGFITTVRDFDYWGQGTLVTVSS
VL: EIVLTQSPDFQSVTPKEKVTITCRASESVDTFGISFMNWFQQKPDQSPKLLIHEASNQGSGVPSRFSGSGSGTDFTLTINSLEAEDAATYYCQQSKEVPFTFGGGTKVEIK
notes: cell depleting agent

Tested on: depleted cell types (B cells)
Conditions: patients receiving depleting agents

Time to recover the depleted cell types, up to a year:
ocrelizumab
rituximab
B1
